# Assay results published in article doi:10.1101/2023.10.09.561484.
# Experiments:
# [1] = biological target: EGFP-Pro(K10R/Y12A) (Streptomyces mobaraensis); assay: BLI
# [2] = biological target: EGFP-Pro(K10R) (Streptomyces mobaraensis); assay: BLI
binder,measurement,setting,value
ΔproMTG lacking the C-terminal His-tag (recombinant mature microbial transglutaminase) (enzyme) DSDDRVTPPAEPLDRMPDPYRPSYGRAETVVNNYIRKWQQVYSHRDGRKQQMTEEQREWLSYGCVGVTWVNSGQYPTNRLAFASFDEDRFKNELKNGRPRSGETRAEFEGRVAKESFDEEKGFQRAREVASVMNRALENAHDESAYLDNLKKELANGNDALRNEDARSPFYSALRNTPSFKERNGGNHDPSRMKAVIYSKHFWSGQDRSSSADKRKYGDPDAFRPAPGTGLVDMSRDRNIPRSPTSPGEGFVNFDYGWFGAQTEADADKTVWTHGNHYHAPNGSLGAMHVYESKFRNWSEGYSDFDRGAYVITFIPKSWNTAPDKVKQGWP,Kd,[1],7.85 µM
same,Kd,[2],0.019 µM
